Results as given in patent US7919295B2, “Polyol oxidases” (Danisco US Inc., priority 2006, dated 2011).

Experiments:
[1] = Substrate range study: SCO6147 SOx activity on D-sorbitol versus D-xylitol; assay type: biochemical, Streptomyces lividans; conditions: SOx transformed in S. lividans; substrates 50 mM, pH 7.0
Procedure: Sorbitol oxidase obtained using the methods described in Example 1, was tested for finding its activity with various polyol substrates. All substrates used in the assay were 50 mM in 10 mM phosphate buffer pH 7.0. The relative activity using sorbitol as (++++++=100%) is shown below in Table 3.

[2] = cited from earlier work
[3] = Stability and bleaching performance of SOx in HDL laundry wash conditions
From the text: In this Example, methods to determine the stability and bleaching performance of SOx (produced as described above) in AATCC liquid detergent laundry wash conditions are described. In these experiments, AATCC standard detergent (American Association of Textile Chemists and Colorists Heavy Duty Liquid Detergent Version 2003 without brightener; key components include linear alkane sulfonate, alcohol ethoxylate, propanediol, citric acid, fatty acid, castic soda and water; Testfabrics) was used.
Three bleachable cotton swatches with juice (STC CFT CS-15), wine (STC CFT CS-3), and tea (STC CFT BC-3) were used. The swatches were cut into 15 mm circles with a textile punch (Model B equipped with a ⅝″ die cutter; Model 93046; NAEF).
Single swatch disks were placed into each well of a 24-well microplate (Costar 3526). One (1) ml of washing solution pH 8, containing per liter, 1.5 ml AATCC HDL detergent, 75-100 mM sorbitol, 6 gpg hardness (diluted from stock 15000 gpg hardness solution containing 1.735 M calcium chloride and 0.67 M magnesium chloride), and 0.05% TAED (tetraacetylethylenediamine, Fluka) was added to each well. Five to fifty (5-50 ul) microliters of partially purified sorbitol oxidase or sorbitol oxidase obtain from a late fermentation run (108 hr EFT “effective fermentation time”) produced as described in Examples 1 and 2, were added with a positive displacement pipette to 3-8 wells in one column. The control wells contained no enzyme. The microplate was covered with a plastic lid and aluminum foil and incubated at 37° C. with 100 rpm gentle rotation for 14 hr. […]
One hundred microliters (100 ul) of 0.1 mM sodium carbonate were added to each well to elevate the pH to 10. […] The disks were inspected visually and then analyzed with a Reflectometer CR-200 (Minolta) calibrated on a standard white tile. The average L values were calculated as was the percent soil release (% SR=100%×(Final reflectance-Initial reflectance)/(Reflectance of a white standard-Initial reflectance). Graphs showing the results of these experiments are provided in FIGS. 5-8.

B1: POx of SEQ ID NO:4: sorbitol oxidase of Streptomyces lividans, gene identified from S. coelicolor SCO6147, expressed intracellularly in S. lividans g3s3 (protein)
chain: MGDITVTNWAGNITYTAKELLRPHSLDALRALVADSARVRVLGSGHSFNEIAEPGDGGVLLSLAGLPSVVDVDTAARTVRVGGGVRYAELARVVHARGLALPNMASLPHISVAGSVATGTHGSGVGNGSLASVVREVELVTADGSTVVIARGDERFGGAVTSLGALGVVTSLTLDLEPAYEMEQHVFTELPLAGLDPATFETVMAAAYSVSLFTDWRAPGFRQVWLKRRTDRPLDGFPYAAPAAEKMHPVPGMPAVNCTEQFGVPGPWHERLPHFRAEFTPSSGAELQSEYLMPREHALAALHAMDAIRETLAPVLQTCEIRTVAADAQWLSPAYGRDTVAAHFTWVEDTAAVLPVVRRLEEALVPFAARPHWGKVFTVPAGELRALYPRLADFGALAGALDPAGKFTNAFVRGVLAG
modifications: Streptomyces lividans
notes: sorbitol oxidase of Streptomyces lividans, gene identified from S. coelicolor SCO6147, expressed intracellularly in S. lividans g3s3
- activity on D-sorbitol relative to D-xylitol [1]: 2.1 times

B2: sorbitol oxidase from Streptomyces species H-7775: sorbitol oxidase of Streptomyces species H-7775, Genbank AB000519, 420 amino acids (protein)
chain: MTPAEKNWAGNITFGAKRLCVPRSVRELRETVAASGAVRPLGTRHSFNTVADTSGDHVSLAGLPRVVDIDVPGRAVSLSAGLRFGEFAAELHARGLALANLGSLPHISVAGAVATGTHGSGVGNRSLAGAVRALSLVTADGETRTLRRTDEDFAGAVVSLGALGVVTSLELDLVPAFEVRQWVYEDLPEATLAARFDEVMSAAYSVSVFTDWRPGPVGQVWLKQRVGDEGARSVMPAEWLGARLADGPRHPVPGMPAGNCTAQQGVPGPWHERLPHFRMEFTPSNGDELQSEYFVARADAVAAYEALARLRDRIAPVLQVSELRTVAADDLWLSPAHGRDSVAFHFTWVPDAAAVAPVAGAIEEALAPFGARPHWGKVFSTAPEVLRTLYPRYADFEELVGRHDPEGTFRNAFLDRYFRR
modifications: Streptomyces H-7775
notes: sorbitol oxidase of Streptomyces species H-7775, Genbank AB000519, 420 amino acids
- pH range in which enzyme is stable ([2]; 24 hours at 30° C.): 7.5-10 pH
- optimum temperature ([2]; at pH 7.5): 50 °C

B3: sorbitol oxidase: partially purified sorbitol oxidase or fermentation broth cell lysate (108 hr EFT) used for biobleaching (protein)
chain: MTPAEKNWAGNITFGAKRLCVPRSVRELRETVAASGAVRPLGTRHSFNTVADTSGDHVSLAGLPRVVDIDVPGRAVSLSAGLRFGEFAAELHARGLALANLGSLPHISVAGAVATGTHGSGVGNRSLAGAVRALSLVTADGETRTLRRTDEDFAGAVVSLGALGVVTSLELDLVPAFEVRQWVYEDLPEATLAARFDEVMSAAYSVSVFTDWRPGPVGQVWLKQRVGDEGARSVMPAEWLGARLADGPRHPVPGMPAGNCTAQQGVPGPWHERLPHFRMEFTPSNGDELQSEYFVARADAVAAYEALARLRDRIAPVLQVSELRTVAADDLWLSPAHGRDSVAFHFTWVPDAAAVAPVAGAIEEALAPFGARPHWGKVFSTAPEVLRTLYPRYADFEELVGRHDPEGTFRNAFLDRYFRR
modifications: Streptomyces H-7775
notes: partially purified sorbitol oxidase or fermentation broth cell lysate (108 hr EFT) used for biobleaching
- stability in typical liquid detergent system ([3]; AATCC HDL detergent, pH 8, 37° C., 14 hr): stable
- hydrogen peroxide production in detergent ([3]; in presence of sorbitol mixed with detergent and atmospheric oxygen): able to produce effective concentration of hydrogen peroxide
- bleaching of colored stains ([3]; with bleach booster TAED, blueberry, tea and wine stains, FIGS. 5-8): able to help bleach
